Values belong to the molecule of their own block, whether it stands above or below them.
Tests used:
[1] = biological target: pseudoacetylated tau (244:378) P301L 3xKQ probe with (EAAAK)3 linker to mTurquoise2 or mNeonGreen (UniProt P10636)
[2] = biological target: the molecule itself; assay: FRET or BRET; FRET between the two differently labelled copies of the probe, read by flow cytometry; HEK293T transiently transfected, exposed 24 h to serial dilutions of human AD brain extract with Lipofectamine 2000 (1% vol/vol) in Opti-MEM

seeding signal (FRET, flow cytometry) in the novel biosensor HEK293T clone 18: tau-immunodepleted AD brain material against the starting material [1]: 82.3%
Molecule: seeding-competent tau from human Alzheimer's disease brain (from UniProt P10636 1-758) (natural protein)

B1: pseudoacetylated tau (244:378) P301L 3xKQ probe with (EAAAK)3 linker to mTurquoise2 or mNeonGreen (domain or fragment)
chain: QTAPVPMPDLKNVKSKIGSTENLKHQPGGGKVQIINKKLDLSNVQSKCGSKDNIKHVLGGGSVQIVYQPVDLSQVTSQCGSLGNIHHKPGGGQVEVKSEKLDFKDRVQSKIGSLDNITHVPGGGNKKIETHKLTFEAAAKEAAAKEAAAK
notes: microtubule associated protein tau, amino acids 244 to 378, P301L and lysines 311, 317 and 321 changed to glutamines to mimic acetylation (3xKQ); Both labelled copies come from one construct with a T2A self-cleaving peptide; a small amount of uncleaved polypeptide was seen by western blot; also called 3xKQ mutant; pseudoacetylated (EAAAK)3 probe; source: HEK293T, transiently transfected, in cells
fold increase in FRET-positive cells against the probe without 3xKQ [2]: ~3 fold

— PMC10408046, “Specific detection of tau seeding activity in Alzheimer’s disease using rationally designed biosensor cells” (Molecular Neurodegeneration, 2023)
